Measured values as given in patent US20090098148A1.

Target: epidermal growth factor receptor (EGFR) on A431 human epidermoid cells (human) (UniProt P00533)
Experiment: cell-based or functional assay

- mean fluorescence activity (biotin-β-galactosidase delivered into each A431 cell, FACS): 214
- positive cells (delivery of biotin-β-galactosidase into A431 cells, staining and FACS): > 99%
Substance: streptavidin-TGF-α fusion protein (ST-TGF) (from UniProt P22629 40-157; P01135 40-89)
